This is an account of results in patent US20080301824A1 (CEDARS SINAI MEDICAL CENTER, published 2008).

For test [1], the target named is endogenous parkin of human cerebral cortex (human, UniProt O60260 1-465, limits assumed). Description: co-IP from human cerebral cortex extract.
Description: To determine whether parkin interacted with endogenous sytXI, protein extract from human cerebral cortex was immunoprecipitated with the anti-parka antibody. For co-immunoprecipitation of human brain extracts, a 1.4 g sample of human cerebral cortex was chopped into small pieces and resuspended in 7 ml of cold lysis buffer (100 mM Tris-HCl, pH 7.5, 150 mM NaCl, 1% Triton X-100, 0.05% SDS, 0.05% deoxycholic acid, and 1 protease inhibitor pellet/10 ml buffer). The cell suspension was homogenized by a glass homogenizer. Protein lysate was aliquoted into 1 ml aliquots and microfuged at top speed in the cold room. Protein extracts were precleared with rabbit IgG conjugated agarose and protein A conjugated agarose for 3 h at 4° C., and the precleared lysate was incubated with rabbit anti-parkA or mouse anti-sytXI antibody overnight in the cold room. The primary antibodies were pulled down with protein A conjugated agarose for 4 h at 4° C. The final pellets were washed five times with co-ip buffer, and the coprecipitates were eluted from the secondary antibody-conjugated agarose with SDS-PAGE buffer.
Test [2] concerns the target T1, GFP-syt11 (GFP-tagged full-length human synaptotagmin XI) (human, UniProt P42212 1-238 = GFP).
T1 construct: also called GFP-sytXI; GFP-sytxI
Description: co-IP with anti-HA agarose from HEK293 cells, anti-GFP blot. On the procedure:
To determine which domain of parkin binds to synaptotagmin, several truncated parkins tagged with the HA epitope were constructed (FIG. 3A). […] Each truncated construct was coexpressed with GFP-sytxI. After 24 h, protein extracts were immunoprecipitated with rat anti-HA-conjugated agarose followed by western blot detection with anti-GFP antibody.

Test [3] deals with T2, hemaglutinin-parkin (HA-parkin), full-length wild type (UniProt O60260 1-465).
T2 construct: also called pCMV-HA-parkin
Description: co-IP.

Test [4] has as its target T3, GAL4 binding domain-Hrs fusion encoded by pGBT9-Hrs (hepatocyte growth factor regulated kinase substrate) (UniProt P04386 1-147; O14964 1-777, limits assumed).
T3 construct: Unrelated bait control
Description: yeast two-hybrid filter assay. The protocol: (§1) As previously described (Shibata et al., Hum. Mol. Genet. 9:1303-1313 (2000) and Scoles et al., Nat. Genet. 18:354-359 (1998)), the bait plasmid was cotransformed in yeast strain Y190 and grown on synthetic media without leucine, tryptophan, and histidine, and with 25 mM 3-amino-1,2,4-triazole and 2% glucose. The Y190 strain allows for nutritional selection of the HIS3 gene that allows growth in media lacking histidine and color selection using the LacZ gene encoding β-galactosidase. The β-galactosidase reporter was assayed on stamped nitrocellulose filters by incubating freeze-fractured colonies in Z-buffer (60 mM Na₂HPO₄, 40 mM NaH₂PO₄, 10 mM KCl, 1 mM MgSO₄, pH 7.0, 0.03 mM β-mercaptoethanol, and 2.5 μM X-gal) at 37° C. for 15 min to 8 hr. Positive clones were restreaked on synthetic media without leucine or tryptophan, and retested for β-galactosidase activity, and then pGAD10. “prey” plasmids were isolated.

The target of test [5] is T4, GAL4 binding domain-NF2 fusion encoded by pGBT9-NF2 (schwannomin tumor suppressor) (UniProt P04386 1-147; P35240 1-595, limits assumed).
T4 construct: also called pGBT9-NF1
The test can be described thus: yeast two-hybrid filter assay. On the procedure: as §1

The target in test [6] is T5, GAL4 binding domain alone (pGBT9 vector control) (UniProt P04386 1-147).
T5 construct: Empty bait vector control; also called negative control vector pGBT9
Description: yeast two-hybrid filter assay. On the procedure:
as §1

The target in test [7] is GAL4 binding domain-parkin(1-465) fusion encoded by pGBT9-parkin(1-465) (UniProt P04386 1-147; O60260 1-465). Description: cell-based or functional assay.
Test [8] deals with T6, endogenous parkin of PC12 cells (UniProt Q9JK66 1-465).
T6 construct: also called 50 kDa parkin band
T6 sequence (looked up): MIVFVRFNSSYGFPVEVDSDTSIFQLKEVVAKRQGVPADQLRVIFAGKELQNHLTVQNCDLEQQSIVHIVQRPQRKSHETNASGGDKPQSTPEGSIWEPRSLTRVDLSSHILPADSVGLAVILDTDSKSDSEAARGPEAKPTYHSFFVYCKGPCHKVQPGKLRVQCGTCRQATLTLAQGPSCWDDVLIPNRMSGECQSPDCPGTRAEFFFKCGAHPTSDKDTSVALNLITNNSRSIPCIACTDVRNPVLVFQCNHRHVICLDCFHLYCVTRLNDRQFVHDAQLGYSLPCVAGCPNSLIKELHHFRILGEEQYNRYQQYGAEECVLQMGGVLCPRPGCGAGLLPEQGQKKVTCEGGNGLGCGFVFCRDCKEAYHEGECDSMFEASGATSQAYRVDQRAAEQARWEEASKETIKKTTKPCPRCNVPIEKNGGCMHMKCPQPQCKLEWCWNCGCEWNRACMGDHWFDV
Description: co-IP with mouse anti-syt1 from PC12 extracts.
Description: PC12 cells were grown in DMEM containing 10% heat-inactivated serum, 5% fetal bovine serum, and penicillin/streptomycin in a 37° C. incubator with 10% CO₂. Media were changed every 3 days. PC12 cells were grown for 48 hours, and proteins were extracted in co-ip buffer (50 mM Tris-HCl, pH 7.5, 0.2% Triton X-100, 150 mM NaCl, and one protease inhibitor pellet (Roche) per 10 ml buffer). Protein extracts were precleared with mouse or rabbit IgG conjugated agarose and incubated with the respective antibodies overnight in the cold room. The primary antibodies were pulled down with anti-mouse or anti-rabbit IgG conjugate agarose for two hours. The final pellets were washed 7 times with co-ip buffer, and the coprecipitates were eluted from the secondary antibody-conjugated agarose with SDS-PAGE buffer. Co-ip products were immunoblotted with either anti-parkin or anti-syt antibodies.

B1: endogenous synaptotagmin XI of human brain (other)
chain: MAEITNIRPSFDVSPVVAGLIGASVLVVCVSVTVFVWSCCHQQAEKKHKNPPYKFIHMLKGISIYPETLSNKKKIIKVRRDKDGPGREGGRRNLLVDAAEAGLLSRDKDPRGPSSGSCIDQLPIKMDYGEELRSPITSLTPGESKTTSPSSPEEDVMLGSLTFSVDYNFPKKALVVTIQEAHGLPVMDDQTQGSDPYIKMTILPDKRHRVKTRVLRKTLDPVFDETFTFYVIPYSQLQDLVLHFLVLSFDRFSRDDVIGEVMVPLAGVDPSTGKVQLTRDIIKRNIQKCISRGELQVSLSYQPVAQRMTVVVLKARHLPKMDITGLSGNPYVKVNVYYGRKRIAKKKTHVKKCTLNPIFNESFIYDIPTDLLPDISIEFLVIDFDRTTKNEVVGRLILGAHSVTASGAEHWREVCESPRKPVAKWHSLSEY
notes: Endogenous protein; also called endogenous sytXI; sytXI protein band
In the case of B1, in test [1], the binding result was “binds”.

B2: HA-tagged truncated parkin p294-385 (enzyme, UniProt O60260 294-385, looked up, not shown: small tags and cut ends)
chain: PNSLIKELHHFRILGEEQYNRYQQYGAEECVLQMGGVLCPRPGCGAGLLPEPDQRKVTCEGGNGLGCGFAFCRECKEAYHEGECSAVFEASG
notes: range 294-385
For B2, in test [2], the binding result is “no binding”.

B3: full length synapsin-like protein (SLP), GFP fusion (other)
chain: MAQHIQLPGVKALVYVCFTAVLGHSVGWHRGHFGQHGLGRGAVRTRLWIRPGHATFLGQRRAGHQCRFPGSRRRQLLKEPKPSPAAPSSFSSSPPPGPPRIAAAAFSSPGRCGCGCPCHLLTAEPPTQDGGRLSLGPEQNLGPHPQKPGCKRAAPTYESCIKFPTRLRFIRLEVEQHHLVDIVAVTTKTGKTEATPHGMRLMNELLQPGCQGSEEKPLRPCFLIISYA
notes: the construct is inferred; also called the full length protein; not shown: green fluorescent protein (GFP)
In the case of B3, in test [3], the binding result is reported as “binds”.

B4: HA-tagged truncated parkin p294-465 (enzyme, UniProt O60260 294-465, looked up, not shown: small tags and cut ends)
chain: PNSLIKELHHFRILGEEQYNRYQQYGAEECVLQMGGVLCPRPGCGAGLLPEPDQRKVTCEGGNGLGCGFAFCRECKEAYHEGECSAVFEASGTTTQAYRVDERAAEQARWEAASKETIKKTTKPCPRCHVPVEKNGGCMHMKCPQPQCRLEWCWNCGCEWNRVCMGDHWFDV
On to B4, for which, in test [2], the binding result is listed as “no binding”.

B5: GAL4 activation domain-MP23a fusion (partial clone of human synapsin-like protein, SLP, in pGAD10) (other, not shown: large carriers)
chain: SFSSSPPPGPPRIAAAAFSSPGRCGCGCPCHLLTAEPPTQDGGRLSLGPEQNLGPHPQKPGCKRAAPTYESCIKFPTRLRFIRLEVEQHHLVDIVAVTTKTGKTEATPHGMRLMNELLQPGCQGSEEKPLRPCFLIISYA
notes: also called SLP (MP23a)
For the molecule B5, the binding result in test [4], in test [5] and in test [6] was “no binding” each time. The “β-galactosidase activity in yeast two-hybrid liquid assay, against negative control vector pGBT9” value in test [7] is about 30 fold.

B6: HA-tagged truncated parkin p1-203 (enzyme, UniProt O60260 1-203, looked up, not shown: small tags and cut ends)
chain: MIVFVRFNSSHGFPVEVDSDTSIFQLKEVVAKRQGVPADQLRVIFAGKELRNDWTVQNCDLDQQSIVHIVQRPWRKGQEMNATGGDDPRNAAGGCEREPQSLTRVDLSSSVLPGDSVGLAVILHTDSRKDSPPAGSPAGRSIYNSFYVYCKGPCQRVQPGKLRVQCSTCRQATLTLTQGPSCWDDVLIPNRMSGECQSPHCPG
On to B6, for which, in test [2], the binding result is recorded as “no binding”.

B7: endogenous synaptotagmin 1 of PC12 cells (other, UniProt P21707 1-421, looked up)
chain: MVSASHPEALAAPVTTVATLVPHNATEPASPGEGKEDAFSKLKQKFMNELHKIPLPPWALIAIAIVAVLLVVTCCFCVCKKCLFKKKNKKKGKEKGGKNAINMKDVKDLGKTMKDQALKDDDAETGLTDGEEKEEPKEEEKLGKLQYSLDYDFQNNQLLVGIIQAAELPALDMGGTSDPYVKVFLLPDKKKKFETKVHRKTLNPVFNEQFTFKVPYSELGGKTLVMAVYDFDRFSKHDIIGEFKVPMNTVDFGHVTEEWRDLQSAEKEEQEKLGDICFSLRYVPTAGKLTVVILEAKNLKKMDVGGLSDPYVKIHLMQNGKRLKKKKTTIKKNTLNPYYNESFSFEVPFEQIQKVQVVVTVLDYDKIGKNDAIGKVFVGYNSTGAELRHWSDMLANPRRPIAQWHTLQVEEEVDAMLAVKK
notes: also called syt1; endogenous syt1
For B7, the binding result in test [8] is reported as “binds”.
